Measured values: patent US20240360223A1 (DRAGONFLY THERAPEUTICS, published 2024)
Residue numbers refer to the chain shown, from its start. Names may count otherwise.

B1: AB1080scFv (scFv, V domains shown)
VH: EVQLVQSGGGVVQPGRSLRLSCAASGFTFSSYGMHWVRQAPGKCLEWVAVIWYDASNKYYGDSVKGRFTISRDNSKNTLYLQMNSLRDEDTAVYYCARRFTHLRGWYIEDYGLDVWGQGTTVTVSS
VL: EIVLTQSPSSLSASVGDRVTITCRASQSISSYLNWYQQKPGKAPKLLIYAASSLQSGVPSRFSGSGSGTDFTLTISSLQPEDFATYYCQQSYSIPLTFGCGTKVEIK
notes: scFv on yeast; also called AB1080 (yeast clone)
B2: AB1084scFv (scFv, V domains shown)
VH: B1 VH with S31M, H102R
VL: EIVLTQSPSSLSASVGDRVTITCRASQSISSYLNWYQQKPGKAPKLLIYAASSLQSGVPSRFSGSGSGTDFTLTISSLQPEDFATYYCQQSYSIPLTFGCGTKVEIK
notes: scFv on yeast; also called AB1084 (yeast clone)
B3: AB1081scFv (scFv, V domains shown)
VH: B1 VH with T28A, A55E, K76R, H102N, Y107I
VL: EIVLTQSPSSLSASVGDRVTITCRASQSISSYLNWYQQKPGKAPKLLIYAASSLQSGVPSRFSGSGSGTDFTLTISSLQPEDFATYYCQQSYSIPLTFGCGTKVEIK
notes: scFv on yeast; also called AB1081 (yeast clone)
B4: Ianalumab-F3′ (bispecific antibody, human IgG1, kappa)
chain: DIVLTQSPATLSLSPGERATLSCRASQFILPEYLSWYQQKPGQAPRLLIYGSSSRATGVPARFSGSGSGTDFTLTISSLEPEDFAVYYCQQFYSSPLTFGCGTKVEIKGGGGSGGGGSGGGGSGGGGSQVQLQQSGPGLVKPSQTLSLTCAISGDSVSSNSAAWGWIRQSPGRCLEWLGRIYYRSKWYNSYAVSVKSRITINPDTSKNQFSLQLNSVTPEDTAVYYCARYQWVPKIGVFDSWGQGTLVTVSSASDKTHTCPPCPAPELLGGPSVFLFPPKPKDTLMISRTPEVTCVVVDVSHEDPEVKFNWYVDGVEVHNAKTKPREEQYNSTYRVVSVLTVLHQDWLNGKEYKCKVSNKALPAPIEKTISKAKGQPREPRVYTLPPCRDELTKNQVSLTCLVKGFYPSDIAVEWESNGQPENNYKTTPPVLVSDGSFTLYSKLTVDKSRWQQGNVFSCSVMHEALHNHYTQKSLSLSPG
heavy: EVQLVESGGGLVKPGGSLRLSCAASGFTFSSYSMNWVRQAPGKGLEWVSSISSSSSYIYYADSVKGRFTISRDNAKNSLYLQMNSLRAEDTAVYYCARGAPIGAAAGWFDPWGQGTLVTVSSASTKGPSVFPLAPSSKSTSGGTAALGCLVKDYFPEPVTVSWNSGALTSGVHTFPAVLQSSGLYSLSSVVTVPSSSLGTQTYICNVNHKPSNTKVDKKVEPKSCDKTHTCPPCPAPELLGGPSVFLFPPKPKDTLMISRTPEVTCVVVDVSHEDPEVKFNWYVDGVEVHNAKTKPREEQYNSTYRVVSVLTVLHQDWLNGKEYKCKVSNKALPAPIEKTISKAKGQPREPQVCTLPPSRDELTENQVSLTCLVKGFYPSDIAVEWESNGQPENNYKTTPPVLDSDGSFFLYSWLTVDKSRWQQGNVFSCSVMHEALHNHYTQKSLSLSPG
light: DIQMTQSPSSVSASVGDRVTITCRASQGISSWLAWYQQKPGKAPKLLIYAASSLQSGVPSRFSGSGSGTDFTLTISSLQPEDFATYYCQQGVSFPRTFGGGTKVEIKRTVAAPSVFIFPPSDEQLKSGTASVVCLLNNFYPREAKVQWKVDNALQSGNSQESVTEQDSKDSTYSLSSTLTLSKADYEKHKVYACEVTHQGLSSPVTKSFNRGEC
notes: F3′ TriNKET: BAFF-R scFv-Fc (chain S), NKG2D Fab heavy (chain H) and light (chain L); no ADCC-enhancing mutations; also called ianalumab-F3′ TriNKET; Tool-F3′
B5: hCOH-2-2-Fab (bispecific antibody, human IgG1, kappa)
heavy 1: not shown
light 1: DIVLTQSPATLSLSPGERATLSCRASESVDNYGISFMNWFQQKPGQAPRLLIYAASNRATGIPARFSGSGSGTDFTLTISSLEPEDFAVYYCQQSKEVPWTFGGGTKVEIKRTVAAPSVFIFPPSDEQLKSGTASVVCLLNNFYPREAKVQWKVDNALQSGNSQESVTEQDSKDSTYSLSSTLTLSKADYEKHKVYACEVTHQGLSSPVTKSFNRGEC
heavy 2: not shown
light 2: B4 light
notes: 2-Fab TriNKET
B6: hCOH-2-F3′ (bispecific antibody, human IgG1, kappa)
chain: DIVLTQSPATLSLSPGERATLSCRASESVDNYGISFMNWFQQKPGQAPRLLIYAASNRATGIPARFSGSGSGTDFTLTISSLEPEDFAVYYCQQSKEVPWTFGCGTKVEIKGGGGSGGGGSGGGGSGGGGSEVQLQESGPGLVKPSQTLSLTCTVSGDSITSGYWNWIRQHPGKCLEYIGYISYSGSTYYNPSLKSRVTISRDTSKNQYSLKLSSVTAADTAVYYCASPNYPFYAMDYWGQGTLVTVSSASDKTHTCPPCPAPELLGGPSVFLFPPKPKDTLMISRTPEVTCVVVDVSHEDPEVKFNWYVDGVEVHNAKTKPREEQYNSTYRVVSVLTVLHQDWLNGKEYKCKVSNKALPAPIEKTISKAKGQPREPRVYTLPPCRDELTKNQVSLTCLVKGFYPSDIAVEWESNGQPENNYKTTPPVLVSDGSFTLYSKLTVDKSRWQQGNVFSCSVMHEALHNHYTQKSLSLSPG
heavy: B4 heavy
light: B4 light
notes: F3′ TriNKET
B7: Ianalumab-2-Fab (bispecific antibody, human IgG1, kappa)
heavy 1: not shown
light 1: DIVLTQSPATLSLSPGERATLSCRASQFILPEYLSWYQQKPGQAPRLLIYGSSSRATGVPARFSGSGSGTDFTLTISSLEPEDFAVYYCQQFYSSPLTFGQGTKVEIKRTVAAPSVFIFPPSDEQLKSGTASVVCLLNNFYPREAKVQWKVDNALQSGNSQESVTEQDSKDSTYSLSSTLTLSKADYEKHKVYACEVTHQGLSSPVTKSFNRGEC
heavy 2: not shown
light 2: B4 light
notes: 2-Fab TriNKET: BAFF-R Fab arm and NKG2D (A49MI) Fab arm, F405L/K409R Fc
B8: Hu9.1-73-F3′ (bispecific antibody, human IgG1, kappa)
chain: DIQMTQSPSSLSASVGDRVTITCKSSQSLLYSSNQNNYLAWYQQKPGKAPKLLIYWAQHLDSGVPSRFSGSGSGTDFTLTISSLQPEDFATYYCQQYYTYPYTFGCGTKVEIKGGGGSGGGGSGGGGSGGGGSEVQLVESGGGLVQPGGSLRLSCAASGLPMAGFYTSWVRQAPGKCLEWVGFIRDKANGYTTEYNPSVKGRFTISADTSKNTAYLQMNSLRAEDTAVYYCAQVRRALDYWGQGTLVTVSSASDKTHTCPPCPAPELLGGPSVFLFPPKPKDTLMISRTPEVTCVVVDVSHEDPEVKFNWYVDGVEVHNAKTKPREEQYNSTYRVVSVLTVLHQDWLNGKEYKCKVSNKALPAPIEKTISKAKGQPREPRVYTLPPCRDELTKNQVSLTCLVKGFYPSDIAVEWESNGQPENNYKTTPPVLVSDGSFTLYSKLTVDKSRWQQGNVFSCSVMHEALHNHYTQKSLSLSPG
heavy: B4 heavy
light: B4 light
notes: F3′ TriNKET; also called Hu9.1-73-F3′ TriNKET
B9: Hu9.1-73-2-Fab (bispecific antibody, human IgG1, kappa)
heavy 1: not shown
light 1: DIQMTQSPSSLSASVGDRVTITCKSSQSLLYSSNQNNYLAWYQQKPGKAPKLLIYWAQHLDSGVPSRFSGSGSGTDFTLTISSLQPEDFATYYCQQYYTYPYTFGQGTKVEIKRTVAAPSVFIFPPSDEQLKSGTASVVCLLNNFYPREAKVQWKVDNALQSGNSQESVTEQDSKDSTYSLSSTLTLSKADYEKHKVYACEVTHQGLSSPVTKSFNRGEC
heavy 2: not shown
light 2: B4 light
notes: 2-Fab TriNKET
B10: Hu9.1-73-mAb (antibody, V domains shown)
VH: EVQLVESGGGLVQPGGSLRLSCAASGLPMAGFYTSWVRQAPGKGLEWVGFIRDKANGYTTEYNPSVKGRFTISADTSKNTAYLQMNSLRAEDTAVYYCAQVRRALDYWGQGTLVTVSS
VL: DIQMTQSPSSLSASVGDRVTITCKSSQSLLYSSNQNNYLAWYQQKPGKAPKLLIYWAQHLDSGVPSRFSGSGSGTDFTLTISSLQPEDFATYYCQQYYTYPYTFGQGTKVEIK
notes: Parental monoclonal antibody; also called Genentech Hu9.1-73 parental mAb
B11: hCOH-2-mAb (antibody, V domains shown)
VH: EVQLQESGPGLVKPSQTLSLTCTVSGDSITSGYWNWIRQHPGKGLEYIGYISYSGSTYYNPSLKSRVTISRDTSKNQYSLKLSSVTAADTAVYYCASPNYPFYAMDYWGQGTLVTVSS
VL: DIVLTQSPATLSLSPGERATLSCRASESVDNYGISFMNWFQQKPGQAPRLLIYAASNRATGIPARFSGSGSGTDFTLTISSLEPEDFAVYYCQQSKEVPWTFGGGTKVEIK
notes: Parental monoclonal antibody; also called Humanized mAb hCOH-2
B12: AB0681 (bispecific antibody, V domains shown)
VH: B1 VH with F27E, T28W, A55G, Y107I, L113M
VL: not shown
notes: also called AB0681-001

Target: T1, hBAFF-R-hFc-His fusion protein (human, UniProt Q96RJ3 1-78, biotinylated in the yeast display assays)
T1 construct: the whole entry is named; also called hBAFFR-Fc; biotinylated hBAFF-R-hFc-His
Assay: yeast display flow cytometry after challenge: 100 pM hBAFFR-Fc biotin for 1hr at RT, then 1 mM nonbiotinylated hBAFFR-Fc (as printed on the sheet)

Row | Iana (percent of events in the drawn gate named Iana) | Binder
1 | 23.4 | B1
2 | 7.4 | B2
3 | 27.2 | B3

Target: T2, human BAFF-R expressed on cells (human, UniProt Q96RJ3 1-184)
T2 construct: Cell surface BAFF-R, endogenous on B cell lines and primary B cells or overexpressed on isogenic CHO cells; also called hBAFF-R; hBAFF-R-CHO
Assay: flow cytometry, RAJI cells
Method: The BAFF-R positive human B lymphoblastoid RAJI cell line was used to assess TriNKET binding to cell surface BAFF-R. Certain BAFF-R TriNKETs in the 2-Fab and F3′ formats, as described in the “exemplary multispecific binding proteins” subsection above, were diluted and incubated with Raji cells. Binding patterns of TriNKETs and parental monoclonal antibodies were detected using a fluorophore conjugated anti-human IgG secondary antibody. The cells were then incubated with a fluorophore conjugated anti-human IgG secondary antibody and were analyzed by flow cytometry. The mean fluorescence intensity (MFI) values were normalized to secondary antibody only controls to obtain fold over background (FOB) values.

Row | EC50 [pM] | Binder
4 | 361 | B4
5 | 942 | B5
6 | 893 | B6
7 | 115 | B7
8 | 765 | B8
9 | 1050 | B9
10 | 379 | B10
11 | 43 | B11

Target: T2, human BAFF-R expressed on cells
Assay: flow cytometry, human BAFF-R CHO cells

Row | EC50 [pM] | Binder
12 | 4300 | B4
13 | 5100 | B12

Target: T3, cynomolgus monkey BAFF-R expressed on cells (cynomolgus monkey)
T3 construct: whole, on cells; also called cBAFF-R; cynoBAFF-R
Assay: flow cytometry, cyno BAFF-R CHO cells

Row | EC50 [pM] | Binder
14 | 2900 | B4
15 | 5600 | B12
